T1: Puf4 RNA-binding domain (Saccharomyces cerevisiae, UniProt P25339 537-888)
T1 sequence: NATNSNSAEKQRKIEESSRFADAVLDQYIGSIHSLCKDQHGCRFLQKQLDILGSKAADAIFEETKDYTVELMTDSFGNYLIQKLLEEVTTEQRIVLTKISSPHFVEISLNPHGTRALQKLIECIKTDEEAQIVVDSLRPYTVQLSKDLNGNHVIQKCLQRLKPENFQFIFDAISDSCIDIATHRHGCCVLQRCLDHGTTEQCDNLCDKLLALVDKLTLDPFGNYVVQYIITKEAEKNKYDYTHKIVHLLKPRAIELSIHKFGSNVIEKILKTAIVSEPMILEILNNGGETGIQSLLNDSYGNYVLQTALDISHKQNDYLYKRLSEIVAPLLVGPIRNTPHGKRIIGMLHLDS

B1: Puf4_HO RNA (ssRNA)
RNA: AUGUGUAUAUUAGU
B2: U1C mutant competitor RNA (ssRNA)
RNA: CGUAUAUUA

Columns and labels:
[1] = molecular target: T1, Puf4 RNA-binding domain; test: EMSA kinetics (koff/kon); 0 C; kon 2.85e7 M-1s-1, koff 2.92e-5 s-1; 20 mM HEPES-Na or HEPES-K pH 7.4, 2 mM MgCl2, 100 mM KOAc, 2 mM DTT, 0.2% Tween 20, 5% glycerol, 0.1 mg/ml BSA; 25 or 0 C; native 20% gel at 4-6 C; conditions: protein: recombinant; tags: C-terminal SNAP tag; N-terminal 6xHis removed by TEV; label: 5'-32P; single strand
[2] = molecular target: T1, Puf4 RNA-binding domain; test: EMSA; 25 C; direct measurement parallel to competition; corrected for 75% active protein; 20 mM HEPES-Na or HEPES-K pH 7.4, 2 mM MgCl2, 100 mM KOAc, 2 mM DTT, 0.2% Tween 20, 5% glycerol, 0.1 mg/ml BSA; 25 or 0 C; native 20% gel at 4-6 C; conditions: protein: recombinant; tags: C-terminal SNAP tag; N-terminal 6xHis removed by TEV; label: 5'-32P; single strand
[3] = molecular target: T1, Puf4 RNA-binding domain; test: EMSA kinetics (koff/kon); 25 C; kon 1.04e8 M-1s-1, koff 0.014 s-1; 20 mM HEPES-Na or HEPES-K pH 7.4, 2 mM MgCl2, 100 mM KOAc, 2 mM DTT, 0.2% Tween 20, 5% glycerol, 0.1 mg/ml BSA; 25 or 0 C; native 20% gel at 4-6 C; conditions: protein: recombinant; tags: C-terminal SNAP tag; N-terminal 6xHis removed by TEV; label: 5'-32P; single strand
[4] = molecular target: T1, Puf4 RNA-binding domain; test: EMSA; 0 C; quadratic fit; 20 mM HEPES-Na or HEPES-K pH 7.4, 2 mM MgCl2, 100 mM KOAc, 2 mM DTT, 0.2% Tween 20, 5% glycerol, 0.1 mg/ml BSA; 25 or 0 C; native 20% gel at 4-6 C; conditions: protein: recombinant; tags: C-terminal SNAP tag; N-terminal 6xHis removed by TEV; label: 5'-32P; single strand
[5] = molecular target: T1, Puf4 RNA-binding domain; test: EMSA; 0 C; hyperbolic fit, upper limit (<=); 20 mM HEPES-Na or HEPES-K pH 7.4, 2 mM MgCl2, 100 mM KOAc, 2 mM DTT, 0.2% Tween 20, 5% glycerol, 0.1 mg/ml BSA; 25 or 0 C; native 20% gel at 4-6 C; conditions: protein: recombinant; tags: C-terminal SNAP tag; N-terminal 6xHis removed by TEV; label: 5'-32P; single strand
[6] = molecular target: T1, Puf4 RNA-binding domain; test: EMSA; 25 C; hyperbolic fit; active-fraction corrected; 20 mM HEPES-Na or HEPES-K pH 7.4, 2 mM MgCl2, 100 mM KOAc, 2 mM DTT, 0.2% Tween 20, 5% glycerol, 0.1 mg/ml BSA; 25 or 0 C; native 20% gel at 4-6 C; conditions: protein: recombinant; tags: C-terminal SNAP tag; N-terminal 6xHis removed by TEV; label: 5'-32P; single strand
[7] = molecular target: T1, Puf4 RNA-binding domain; test: EMSA; 25 C; quadratic fit; 20 mM HEPES-Na or HEPES-K pH 7.4, 2 mM MgCl2, 100 mM KOAc, 2 mM DTT, 0.2% Tween 20, 5% glycerol, 0.1 mg/ml BSA; 25 or 0 C; native 20% gel at 4-6 C; conditions: protein: recombinant; tags: C-terminal SNAP tag; N-terminal 6xHis removed by TEV; label: 5'-32P; single strand
[8] = molecular target: T1, Puf4 RNA-binding domain; test: competition EMSA; 25 C; three-fold lower Puf4; 20 mM HEPES-Na or HEPES-K pH 7.4, 2 mM MgCl2, 100 mM KOAc, 2 mM DTT, 0.2% Tween 20, 5% glycerol, 0.1 mg/ml BSA; 25 or 0 C; native 20% gel at 4-6 C; conditions: protein: recombinant; tags: C-terminal SNAP tag; N-terminal 6xHis removed by TEV; label: none; single strand
[9] = molecular target: T1, Puf4 RNA-binding domain; test: competition EMSA; 25 C; vs labeled Puf4_HO, 0.45 nM active Puf4; 190-210 nM across 10-110 min; 230 nM with upper limit of labeled RNA; 20 mM HEPES-Na or HEPES-K pH 7.4, 2 mM MgCl2, 100 mM KOAc, 2 mM DTT, 0.2% Tween 20, 5% glycerol, 0.1 mg/ml BSA; 25 or 0 C; native 20% gel at 4-6 C; conditions: protein: recombinant; tags: C-terminal SNAP tag; N-terminal 6xHis removed by TEV; label: none; single strand

Binder | Kd [1] | Kd [2] | Kd [3] | Kd [4] | Kd [5] | Kd [6] | Kd [7] | Kd [8] | Kd [9]
B1 | 0.00102 ± 8e-05 nM | 0.105 nM | 0.13 ± 0.03 nM | 0.00139 ± 9e-05 nM | < 0.0017 nM | 0.12 ± 0.03 nM | 0.12 ± 0.03 nM |  | 
B2 |  |  |  |  |  |  |  | 180 nM | 204 nM
